The experiment concerns the target glycoprotein D of HSV-1 KOS/tk12 (wild type HSV-1 KOS carrying a lacZ reporter gene) (herpes simplex virus 1 (HSV-1 KOS)). As to the kind of experiment: cell-based or functional assay.

With recombinant sHveA102 protein (receptor), the percentage of cells infected with the virus (X-gal staining) was 70%.

(Values after patent publication US20100233758A1.)
